Data taken from patent publication US20090054317A1.

Target: ANTXR2 expressed in RAW264.7 cells, Q6DFX2
Assay: cell-based or functional assay

Sequence of ANTXR2 expressed in RAW264.7 cells, Q6DFX2 (Q6DFX2 32-487 limits assumed): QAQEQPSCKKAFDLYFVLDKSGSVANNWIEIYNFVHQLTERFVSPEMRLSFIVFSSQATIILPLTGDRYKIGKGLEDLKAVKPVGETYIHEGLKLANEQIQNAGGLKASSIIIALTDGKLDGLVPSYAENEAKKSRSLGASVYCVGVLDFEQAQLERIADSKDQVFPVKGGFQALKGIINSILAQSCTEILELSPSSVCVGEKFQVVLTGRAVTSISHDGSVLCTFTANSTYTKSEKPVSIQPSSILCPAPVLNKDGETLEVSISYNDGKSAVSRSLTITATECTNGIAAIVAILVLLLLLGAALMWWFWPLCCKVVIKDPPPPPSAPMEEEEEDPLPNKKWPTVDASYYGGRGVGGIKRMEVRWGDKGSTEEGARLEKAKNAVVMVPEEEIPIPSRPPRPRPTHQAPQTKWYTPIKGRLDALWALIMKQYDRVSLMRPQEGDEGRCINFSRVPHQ

AWPLSQLDHSYNC (modifications not checked) [… (SEQ ID NO: 3)-functionalized liposomes]
Activity against toxin-induced cell death in RAW264.7 cells (IC50): 40 nM
enhancement in the activity of the peptide by polyvalency (against the monovalent peptide): > 50000 fold
